Reference: PMC6335420, “The cell cycle regulator GpsB functions as cytosolic adaptor for multiple cell wall enzymes” (Nature Communications, 2019)
Where a chain is given by its changes, count along the chain named. No end group written: not given here.

B1: BsYrrS_(Δ13-16) (natural protein)
chain: MSNNQSRYENRDANLVLNILIAIVSILIVVVAANLFINSPSSKDVSKDSETAQKQESPASGKTEKKSDEDIKDSKKDTSDSEKDSEKSSDSDSKKDDSSSKKDDSDSDSSSDSAGDGLKDAKVTEGGSSSDVEKTYENPDWKAVGTEQTGEHAATYDSSSQDWAEMLKAISYATGVSTDNMTVLWLGNNGSPQDAKGKILDKATGNKYQVTITWVDEKGWKPTKVEKLK
notes: source: E. coli BL21(DE3), purified from membranes (Ni-NTA, Superdex 200)
B2: BsPBP1_(1-32), TAMRA-labelled at position 16 (peptide, UniProt P39793 1-32, looked up)
peptide: MSDQFNSREARRKANC(TAMRA (maleimide))KSSPSPKKGKKRKKGG
notes: PBP1, Bacillus subtilis, residues 1-32; also called BsPBPA1_(1-32); BsPBP1A_(1-32); source: E. coli, His-tagged MBP fusion purified (Ni-NTA), labelled, TEV-cleaved, ultrafiltration
B3: SpGpsB_(1-63) (domain or fragment)
chain: MASIIFSAKDIFEQEFGREVRGYNKVEVDEFLDDVIKDYETYAALVKSLRQEIADLKEELTRK
notes: GpsB, Streptococcus pneumoniae R6, residues 1-63 (stop codon in place of Pro64); also called N-terminal domain of SpGpsB; wildtype SpGpsB_(1-63); source: E. coli, purified (Ni-NTA, thrombin, ammonium sulphate precipitation, gel filtration)
B4: SpGpsB_(1-63)^Asp33Ala (domain or fragment)
chain: B3 chain with D33A
notes: also called SpGpsB^Asp33Ala; source: E. coli, purified (Ni-NTA, thrombin, ammonium sulphate precipitation, gel filtration)
B5: SpPBP2a_(27-40) (peptide, UniProt Q8DNB6 27-40, looked up)
peptide: TILRRSRSDRKKLA
notes: PBP2a, Streptococcus pneumoniae, residues 27-40; also called 14-residue peptide of SpPBP2a; source: synthetic peptide
B6: SpGpsB_(4-63) (domain or fragment, S. pneumoniae R6, UniProt Q8DR57 4-63, looked up)
chain: IIFSAKDIFEQEFGREVRGYNKVEVDEFLDDVIKDYETYAALVKSLRQEIADLKEELTRK
notes: GpsB, Streptococcus pneumoniae R6, residues 4-63; also called slightly truncated form of the N-terminal domain of SpGpsB; source: E. coli, purified (Ni-NTA, TEV, Superdex 75); not shown: His6, N-terminal, cleaved
B7: BsGpsB_(1-68) (domain or fragment, B. subtilis, UniProt P0CI74 1-68, looked up)
chain: MLADKVKLSAKEILEKEFKTGVRGYKQEDVDKFLDMIIKDYETFHQEIEELQQENLQLKKQLEEASKK
notes: GpsB, Bacillus subtilis, residues 1-68; also called N-terminal domain of BsGpsB; source: E. coli, purified (Ni-NTA, thrombin, size exclusion)
B8: BsYpbE_(1-21), fluorescein-labelled (peptide)
peptide: MTNMSRVERRKAQNLYEDQNA
modifications: also: fluorescein label, position not given here
notes: also called 21-residue fragment of the cytoplasmic domain of BsYpbE; source: synthetic peptide
B9: BsPBP1_(1-17) (peptide, UniProt P39793 1-17, looked up)
peptide: MSDQFNSREARRKANSK
notes: PBP1, Bacillus subtilis, residues 1-17; also called first 17 amino acids of BsPBP1; source: synthetic peptide

Key:
[1] = molecular target: T1, full-length BsPBP1 (Bacillus subtilis PBP1) (B. subtilis, UniProt P39793 1-914); test: SPR; conditions: both partners purified
T1 construct: also called wild-type BsPBP1; source: E. coli, purified from membrane pellets (His select resin, thrombin, Superdex S200)
T1 sequence (looked up): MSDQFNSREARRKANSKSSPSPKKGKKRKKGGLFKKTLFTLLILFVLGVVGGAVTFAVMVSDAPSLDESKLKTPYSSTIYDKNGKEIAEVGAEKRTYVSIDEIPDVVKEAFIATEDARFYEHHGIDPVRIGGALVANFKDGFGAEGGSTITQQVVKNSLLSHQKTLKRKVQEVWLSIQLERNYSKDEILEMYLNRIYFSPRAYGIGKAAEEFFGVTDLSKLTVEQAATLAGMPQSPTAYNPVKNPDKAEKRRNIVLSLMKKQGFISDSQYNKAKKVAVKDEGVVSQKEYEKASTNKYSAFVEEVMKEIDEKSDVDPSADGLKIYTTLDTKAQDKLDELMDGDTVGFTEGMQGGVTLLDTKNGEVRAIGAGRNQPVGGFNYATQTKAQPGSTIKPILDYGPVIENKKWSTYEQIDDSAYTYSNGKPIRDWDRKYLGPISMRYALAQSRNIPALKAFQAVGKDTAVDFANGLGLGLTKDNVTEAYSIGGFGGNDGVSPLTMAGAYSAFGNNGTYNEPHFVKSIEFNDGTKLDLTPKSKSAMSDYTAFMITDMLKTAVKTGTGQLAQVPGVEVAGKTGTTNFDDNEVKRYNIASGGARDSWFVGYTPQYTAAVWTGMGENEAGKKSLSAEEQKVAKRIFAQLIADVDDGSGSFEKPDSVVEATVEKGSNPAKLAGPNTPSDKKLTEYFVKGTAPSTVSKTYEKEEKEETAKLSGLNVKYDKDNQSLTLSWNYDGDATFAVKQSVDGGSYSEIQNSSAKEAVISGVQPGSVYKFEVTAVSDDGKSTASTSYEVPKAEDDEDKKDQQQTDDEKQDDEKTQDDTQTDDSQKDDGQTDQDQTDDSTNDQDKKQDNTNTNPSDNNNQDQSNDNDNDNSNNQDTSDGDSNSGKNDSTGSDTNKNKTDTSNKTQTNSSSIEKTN

[2] = molecular target: T2, full-length BsGpsB (Bacillus subtilis GpsB) (B. subtilis, UniProt P0CI74 1-98); test: fluorescence polarisation; GpsB protein titrated into fluorescently labelled peptide; 10 mM Tris.HCl pH 8.0, 250 mM NaCl, 0.1% reduced Triton X-100; fit to a 1:1 interaction model; conditions: both partners purified
T2 construct: GpsB, Bacillus subtilis; purification of the full-length protein is not described here; source: E. coli BL21(DE3) used for recombinant protein production)
T2 sequence (looked up): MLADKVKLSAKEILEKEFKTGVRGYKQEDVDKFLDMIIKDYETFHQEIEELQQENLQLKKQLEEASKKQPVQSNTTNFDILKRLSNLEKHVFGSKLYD

BsGpsB_(1-68) [3] = molecular target: B7; test: as above; conditions: both partners purified
[4] = molecular target: T3, SpPBP2a_(23-45)^Arg31Lys, TAMRA-labelled (S. pneumoniae R6, UniProt Q8DNB6 23-45, Gly43 to cysteine | Arg31Lys, TAMRA (maleimide) label); test: fluorescence polarisation; conditions: both partners purified
T3 construct: also called SpPBP2a^Arg31Lys; source: E. coli, His-tagged MBP fusion purified (Ni-NTA), labelled, TEV-cleaved, ultrafiltration
T3 peptide: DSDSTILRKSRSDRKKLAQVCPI

[5] = molecular target: T4, SpPBP2a_(23-45)^Arg31Lys,Arg33Lys, TAMRA-labelled (S. pneumoniae R6, UniProt Q8DNB6 23-45, Gly43 to cysteine | Arg31Lys | Arg33Lys, TAMRA (maleimide) label); test: fluorescence polarisation; conditions: both partners purified
T4 construct: also called SpPBP2a^Arg31Lys,Arg33Lys; source: E. coli, His-tagged MBP fusion purified (Ni-NTA), labelled, TEV-cleaved, ultrafiltration
T4 peptide: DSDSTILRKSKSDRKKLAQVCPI

[6] = molecular target: Fluorescein-SpPBP2b1-17 (S. pneumoniae R6); test: fluorescence polarisation; GpsB protein titrated into TAMRA- or fluorescein-labelled peptide; 10 mM Tris.HCl pH 8.0, 250 mM NaCl, 0.1% reduced Triton X-100; all data fitted to a 1:1 interaction model, Kd ± standard error
[7] = molecular target: T5, SpPBP2a_(23-45), TAMRA-labelled (S. pneumoniae R6, UniProt Q8DNB6 23-45, Gly43 to cysteine, TAMRA (maleimide) label); test: fluorescence polarisation; conditions: both partners purified
T5 construct: source: E. coli, His-tagged MBP fusion purified (Ni-NTA), labelled, TEV-cleaved, ultrafiltration
T5 peptide: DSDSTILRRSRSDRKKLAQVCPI

SpGpsB_(4-63) = molecular target: B6; test: crystal structure; co-crystallisation of GpsB N-terminal domain with PBP peptide, 1:5 molar ratio protein:peptide, room temperature; conditions: both partners purified
[8] = molecular target: the molecule itself; test: as above
[9] = molecular target: T6, BsPBP1_(1-32)^Arg8Lys, TAMRA-labelled at position 16 (B. subtilis, UniProt P39793 1-32, Ser16Cys | Arg8Lys, TAMRA (maleimide) at position 16); test: fluorescence polarisation; GpsB protein titrated into fluorescently labelled peptide; 10 mM Tris.HCl pH 8.0, 250 mM NaCl, 0.1% reduced Triton X-100; fit to a 1:1 interaction model; conditions: both partners purified
T6 construct: PBP1, Bacillus subtilis, residues 1-32; also called BsPBP1^Arg8Lys; source: E. coli, His-tagged MBP fusion purified (Ni-NTA), labelled, TEV-cleaved, ultrafiltration
T6 peptide (looked up): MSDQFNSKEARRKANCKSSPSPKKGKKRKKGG

[10] = molecular target: T7, BsPBP1_(1-32)^Arg8Ala, TAMRA-labelled at position 16 (B. subtilis, UniProt P39793 1-32, Ser16Cys | Arg8Ala, TAMRA (maleimide) at position 16); test: as above; conditions: both partners purified
T7 construct: PBP1, Bacillus subtilis, residues 1-32; also called BsPBP1^Arg8Ala; source: E. coli, His-tagged MBP fusion purified (Ni-NTA), labelled, TEV-cleaved, ultrafiltration
T7 peptide (looked up): T6 peptide (looked up) with K8A

[11] = molecular target: T8, BsPBP1_(1-32)^Arg11Ala, TAMRA-labelled at position 16 (B. subtilis, UniProt P39793 1-32, Ser16Cys | Arg11Ala, TAMRA (maleimide) at position 16); test: as above; conditions: both partners purified
T8 construct: PBP1, Bacillus subtilis, residues 1-32; also called BsPBP1^Arg11Ala; source: E. coli, His-tagged MBP fusion purified (Ni-NTA), labelled, TEV-cleaved, ultrafiltration
T8 peptide (looked up): T6 peptide (looked up) with K8R, R11A

[12] = molecular target: T9, BsPBP1_(1-32)^Ser7Ala, TAMRA-labelled at position 16 (B. subtilis, UniProt P39793 1-32, Ser16Cys | Ser7Ala, TAMRA (maleimide) at position 16); test: as above; conditions: both partners purified
T9 construct: PBP1, Bacillus subtilis, residues 1-32; source: E. coli, His-tagged MBP fusion purified (Ni-NTA), labelled, TEV-cleaved, ultrafiltration
T9 peptide (looked up): T6 peptide (looked up) with S7A, K8R

[13] = molecular target: T10, BsPBP1_(1-32)^Ala10Pro, TAMRA-labelled at position 16 (B. subtilis, UniProt P39793 1-32, Ser16Cys | Ala10Pro, TAMRA (maleimide) at position 16); test: as above; conditions: both partners purified
T10 construct: PBP1, Bacillus subtilis, residues 1-32; source: E. coli, His-tagged MBP fusion purified (Ni-NTA), labelled, TEV-cleaved, ultrafiltration
T10 peptide (looked up): T6 peptide (looked up) with K8R, A10P

BsGpsB_(1-68) [14] = molecular target: B7; test: fluorescence polarisation; conditions: both partners purified
BsGpsB_(5-64) = molecular target: T11, BsGpsB_(5-64) (B. subtilis 168, UniProt P0CI74 5-64); test: crystal structure; co-crystallisation of GpsB N-terminal domain with PBP peptide, 1:5 molar ratio protein:peptide, room temperature; conditions: both partners purified
T11 construct: GpsB, Bacillus subtilis 168, residues 5-64; two molecules in the asymmetric unit; also called N-terminal domain of BsGpsB, termini truncated; source: E. coli, purified (Ni-NTA, TEV, Superdex 75); not shown: His6, N-terminal, cleaved
T11 sequence (looked up): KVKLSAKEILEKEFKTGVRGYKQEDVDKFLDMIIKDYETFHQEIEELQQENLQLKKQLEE

With B1 the Kd [1] was 0.02 µM.

B2: binds [2]; binds (BsGpsB_(1-68) [3]).

In the case of B3, the “fold reduction in affinity against wild type” value (“fold reduction in affinity” for short) [4] is reported as 2 fold, the “fold reduction in affinity” value [5] is reported as > 25 fold and the Kd [6] is reported as > 3600 µM.

For B4, the “fold reduction in affinity” value [7] was ~40 fold.

B5: binds (SpGpsB_(4-63)).

B6: binds [8].

With B7 the “fold reduction in affinity” value [9] was ≥ 5 fold, the “fold reduction in affinity” value [10] was ≥ 5 fold and the “fold reduction in affinity” value [11] was ≥ 5 fold. The “fold reduction in affinity” value [12] was ≥ 6 fold and the “fold reduction in affinity” value [13] was ≥ 6 fold.

B8 gave a Kd (BsGpsB_(1-68) [14]) of 13 µM.

B9: binds (BsGpsB_(5-64)).
